The values that follow come from US20050032118A1, “Nitrophenyl derivatives that can be activated by light” (priority 1996, published 2005).

This data set is described as follows: Photolysis of nitrobenzyl-BSA conjugates with ultraviolet light (365 nm), residues counted by spectrophotometry. To be noted: for residues removed on irradiation with light: BSA as model protein, 8-15 residues bound, approximately 10 mins; for NBE residues cleaved from the protein / NBE residues cleaved: UV 10 min.

As to `O=[N+]([O-])c1ccccc1CO` [NBA, 2-nitrobenzyl alcohol], the “residues removed on irradiation with light” value is about 65%.

For the compound `CC(O)Cc1ccccc1[N+](=O)[O-]` (centres unmarked) [NBE, 1-(2-nitrobenzyl)ethanol], the “residues removed on irradiation with light” value is “about 95%”.

“NBE-BSA conjugates: bovine serum albumin randomly coated with NBE residues through nitrobenzyloxycarbonyl chloride”: the “NBE residues cleaved from the protein” value runs as follows: (3 NBE residues bound per protein molecule (50 mg sample)) 3 residues; (14.8 NBE residues bound per protein molecule (25 mg sample)) 14 residues. Further, the NBE residues cleaved is 2.5 residues (3.5 NBE residues per BSA molecule), 6.0 residues (6.9 NBE residues per BSA molecule), 10 residues (10.8 NBE residues per BSA molecule) and 14 residues (14.5 NBE residues per BSA molecule).
